In experiment [1] the target is GST-UAP56 (human) (UniProt Q13838). Nature of the experiment: SPR; UAP56 with API5, FGF2, the API5–FGF2 complex or PBK as analyte proteins; purified recombinant proteins.
For experiment [2], the target named is His-FGF2, LMW FGF2 (residues 135-288, C211S/C229S) (UniProt P09038). The experiment can be described thus: SPR. The settings on record: concentration series 0.031, 0.063, 0.13, 0.25, 0.50, 1.0, 2.0, 4.0, 8.0, 16 µM.
Experiment [3] concerns the target His-API5 (apoptosis inhibitor 5, residues 1-504, isoform 2), wild type (human). Nature of the experiment: SPR; purified recombinant His-API5 and His-FGF2; who was immobilised is not given in the source. (In general: SPR reads the build-up and loss of mass on a sensor chip optically.)
Experiment [4] concerns the target His-API5 3Mut (E184A/D185A/E190A) (human). The experiment is described as above.
In experiment [5] the target is His-API5 (apoptosis inhibitor 5, residues 1-504, isoform 2), wild type. Nature of the experiment: SPR. The settings on record: concentration series 0.13, 0.25, 0.50, 1.0, 2.0, 4.0, 8.0, 16 µM.

The source of these data is publication PMC7293033.

What is called Kd is the concentration at which binding is half-saturated. In general, kon refers to the second-order rate constant of association. Low values mean slower complex formation, high ones faster complex formation.

Sequence of GST-UAP56 (human) (Q13838 whole entry, the tested form may be a part): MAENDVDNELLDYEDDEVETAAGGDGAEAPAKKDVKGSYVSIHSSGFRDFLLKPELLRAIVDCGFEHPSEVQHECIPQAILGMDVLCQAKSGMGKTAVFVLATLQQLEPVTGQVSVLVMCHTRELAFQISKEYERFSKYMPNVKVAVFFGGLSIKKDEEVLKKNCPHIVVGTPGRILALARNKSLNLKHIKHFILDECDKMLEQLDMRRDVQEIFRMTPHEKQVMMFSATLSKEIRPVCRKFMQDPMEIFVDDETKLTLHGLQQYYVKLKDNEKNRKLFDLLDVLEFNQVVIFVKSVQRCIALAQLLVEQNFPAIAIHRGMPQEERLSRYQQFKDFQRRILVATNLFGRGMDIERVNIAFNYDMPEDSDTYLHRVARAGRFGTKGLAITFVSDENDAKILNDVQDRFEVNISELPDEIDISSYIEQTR
Sequence of His-FGF2, LMW FGF2 (residues 135-288, C211S/C229S) (P09038 135-288 C211S/C229S): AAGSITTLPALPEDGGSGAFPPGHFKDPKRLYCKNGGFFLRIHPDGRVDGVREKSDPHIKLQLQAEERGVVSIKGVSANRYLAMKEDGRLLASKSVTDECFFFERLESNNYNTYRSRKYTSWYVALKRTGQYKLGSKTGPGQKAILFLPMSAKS

With “API5–FGF2 complex (His-API5 with His-LMW FGF2) (from UniProt P09038 135-288)”, in experiment [1], the Kd was 199 nM.

In the case of “His-API5 (apoptosis inhibitor 5, residues 1-504, isoform 2), wild type (natural protein)”, the Kd in experiment [1] was 1370 nM.

Regarding “His-API5 (apoptosis inhibitor 5, residues 1-504, isoform 2), wild type E184A; D185A; E190A”, the kon in experiment [2] was found to be 2260 M⁻¹ s⁻¹.

Turning to “His-FGF2 Mut (C211S/C229S/R262A/T263A/K271A) (from UniProt P09038 135-288) (natural protein)”, the Kd worked out at 1510 nM in experiment [3] and 17300 nM in experiment [4].

Consider “His-FGF2, LMW FGF2 (residues 135-288, C211S/C229S) (from UniProt P09038 135-288) (natural protein)”, for which the Kd in experiment [3] was determined as 676 nM; in experiment [4], 4200 nM.

Consider “His-FGF2, LMW FGF2 (residues 135-288, C211S/C229S) (from UniProt P09038) R262A; T263A; K271A”, for which, in experiment [5], the kon came out at 1660 M⁻¹ s⁻¹.
